ChEMBL document CHEMBL3425448, “Synthesis of hydrolysis-resistant pyridoxal 5'-phosphate analogs and their biochemical and X-ray crystallographic characterization with the pyridoxal phosphatase chronophin” (Bioorg Med Chem, 2015)

Assays:
[1] = compound: Cc1ncc(/C=C/P(=O)(O)O)c(C=O)c1O; experiment: (§1) Inhibition of recombinant mouse brain PDXP-mediated pyridoxal 5' phosphate hydrolysis expressed in Escherichia coli BL21 (DE3) cells assessed as enzyme Km at 1 mM preincubated for 4 mins followed by substrate addition measured after 2 mins
[2] = compound: Cc1ncc(/C=C/P(=O)(O)O)c(CO)c1O; experiment: as §1
[3] = compound: Cc1ncc(CCP(=O)(O)O)c(CO)c1O; experiment: as §1
[4] = compound: Cc1ncc(CCP(=O)(O)O)c(C=O)c1O; experiment: as §1
[5] = compound: Cc1ncc(/C=C/P(=O)(O)O)c(C=O)c1O; experiment: (§2) Inhibition of recombinant mouse brain PDXP-mediated pyridoxal 5' phosphate hydrolysis expressed in Escherichia coli BL21 (DE3) cells assessed as ratio of enzyme Kcat/Km at 2 mM preincubated for 4 mins followed by substrate addition measured after 2 mins
[6] = compound: Cc1ncc(/C=C/P(=O)(O)O)c(CO)c1O; experiment: as §2
[7] = compound: Cc1ncc(CCP(=O)(O)O)c(CO)c1O; experiment: as §2
[8] = compound: Cc1ncc(CCP(=O)(O)O)c(C=O)c1O; experiment: as §2
[9] = compound: Cc1ncc(/C=C/P(=O)(O)O)c(C=O)c1O; experiment: (§3) Inhibition of recombinant mouse brain PDXP-mediated pyridoxal 5' phosphate hydrolysis expressed in Escherichia coli BL21 (DE3) cells assessed as enzyme Vmax at 2 mM preincubated for 4 mins followed by substrate addition measured after 2 mins
[10] = compound: Cc1ncc(/C=C/P(=O)(O)O)c(CO)c1O; experiment: as §3
[11] = compound: Cc1ncc(CCP(=O)(O)O)c(CO)c1O; experiment: as §3
[12] = compound: Cc1ncc(CCP(=O)(O)O)c(C=O)c1O; experiment: as §3
[13] = compound: Cc1ncc(/C=C/P(=O)(O)O)c(C=O)c1O; experiment: (§4) Inhibition of recombinant mouse brain PDXP-mediated pyridoxal 5' phosphate hydrolysis expressed in Escherichia coli BL21 (DE3) cells assessed as enzyme Vmax at 0.1 mM preincubated for 4 mins followed by substrate addition measured after 2 mins
[14] = compound: Cc1ncc(/C=C/P(=O)(O)O)c(CO)c1O; experiment: as §4
[15] = compound: Cc1ncc(CCP(=O)(O)O)c(CO)c1O; experiment: as §4
[16] = compound: Cc1ncc(CCP(=O)(O)O)c(C=O)c1O; experiment: as §4
[17] = compound: Cc1ncc(/C=C/P(=O)(O)O)c(C=O)c1O; experiment: (§5) Inhibition of recombinant mouse brain PDXP-mediated pyridoxal 5' phosphate hydrolysis expressed in Escherichia coli BL21 (DE3) cells assessed as enzyme Km at 0.1 mM preincubated for 4 mins followed by substrate addition measured after 2 mins
[18] = compound: Cc1ncc(/C=C/P(=O)(O)O)c(CO)c1O; experiment: as §5
[19] = compound: Cc1ncc(CCP(=O)(O)O)c(CO)c1O; experiment: as §5
[20] = compound: Cc1ncc(CCP(=O)(O)O)c(C=O)c1O; experiment: as §5
[21] = compound: Cc1ncc(/C=C/P(=O)(O)O)c(C=O)c1O; experiment: (§6) Inhibition of recombinant mouse brain PDXP-mediated pyridoxal 5' phosphate hydrolysis expressed in Escherichia coli BL21 (DE3) cells assessed as enzyme Kcat at 0.5 mM preincubated for 4 mins followed by substrate addition measured after 2 mins
[22] = compound: Cc1ncc(/C=C/P(=O)(O)O)c(CO)c1O; experiment: as §6
[23] = compound: Cc1ncc(CCP(=O)(O)O)c(CO)c1O; experiment: as §6
[24] = compound: Cc1ncc(CCP(=O)(O)O)c(C=O)c1O; experiment: as §6
[25] = compound: Cc1ncc(/C=C/P(=O)(O)O)c(C=O)c1O; experiment: (§7) Inhibition of recombinant mouse brain PDXP-mediated pyridoxal 5' phosphate hydrolysis expressed in Escherichia coli BL21 (DE3) cells assessed as enzyme Vmax at 1 mM preincubated for 4 mins followed by substrate addition measured after 2 mins
[26] = compound: Cc1ncc(/C=C/P(=O)(O)O)c(CO)c1O; experiment: as §7
[27] = compound: Cc1ncc(CCP(=O)(O)O)c(CO)c1O; experiment: as §7
[28] = compound: Cc1ncc(CCP(=O)(O)O)c(C=O)c1O; experiment: as §7
[29] = compound: Cc1ncc(/C=C/P(=O)(O)O)c(C=O)c1O; experiment: (§8) Inhibition of recombinant mouse brain PDXP-mediated pyridoxal 5' phosphate hydrolysis expressed in Escherichia coli BL21 (DE3) cells assessed as enzyme Kcat at 1 mM preincubated for 4 mins followed by substrate addition measured after 2 mins
[30] = compound: Cc1ncc(/C=C/P(=O)(O)O)c(CO)c1O; experiment: as §8
[31] = compound: Cc1ncc(CCP(=O)(O)O)c(CO)c1O; experiment: as §8
[32] = compound: Cc1ncc(CCP(=O)(O)O)c(C=O)c1O; experiment: as §8
[33] = compound: Cc1ncc(/C=C/P(=O)(O)O)c(C=O)c1O; experiment: (§9) Inhibition of recombinant mouse brain PDXP-mediated pyridoxal 5' phosphate hydrolysis expressed in Escherichia coli BL21 (DE3) cells assessed as ratio of enzyme Kcat/Km at 1 mM preincubated for 4 mins followed by substrate addition measured after 2 mins
[34] = compound: Cc1ncc(/C=C/P(=O)(O)O)c(CO)c1O; experiment: as §9
[35] = compound: Cc1ncc(CCP(=O)(O)O)c(CO)c1O; experiment: as §9
[36] = compound: Cc1ncc(CCP(=O)(O)O)c(C=O)c1O; experiment: as §9
[37] = compound: Cc1ncc(/C=C/P(=O)(O)O)c(C=O)c1O; experiment: (§10) Inhibition of recombinant mouse brain PDXP-mediated pyridoxal 5' phosphate hydrolysis expressed in Escherichia coli BL21 (DE3) cells assessed as enzyme Vmax at 0.5 mM preincubated for 4 mins followed by substrate addition measured after 2 mins
[38] = compound: Cc1ncc(/C=C/P(=O)(O)O)c(CO)c1O; experiment: as §10
[39] = compound: Cc1ncc(CCP(=O)(O)O)c(CO)c1O; experiment: as §10
[40] = compound: Cc1ncc(CCP(=O)(O)O)c(C=O)c1O; experiment: as §10
[41] = compound: Cc1ncc(/C=C/P(=O)(O)O)c(C=O)c1O; experiment: (§11) Inhibition of recombinant mouse brain PDXP-mediated pyridoxal 5' phosphate hydrolysis expressed in Escherichia coli BL21 (DE3) cells assessed as ratio of enzyme Kcat/Km at 0.1 mM preincubated for 4 mins followed by substrate addition measured after 2 mins
[42] = compound: Cc1ncc(/C=C/P(=O)(O)O)c(CO)c1O; experiment: as §11
[43] = compound: Cc1ncc(CCP(=O)(O)O)c(CO)c1O; experiment: as §11
[44] = compound: Cc1ncc(CCP(=O)(O)O)c(C=O)c1O; experiment: as §11
[45] = compound: Cc1ncc(/C=C/P(=O)(O)O)c(C=O)c1O; experiment: (§12) Inhibition of recombinant mouse brain PDXP-mediated pyridoxal 5' phosphate hydrolysis expressed in Escherichia coli BL21 (DE3) cells assessed as enzyme Kcat at 0.1 mM preincubated for 4 mins followed by substrate addition measured after 2 mins
[46] = compound: Cc1ncc(/C=C/P(=O)(O)O)c(CO)c1O; experiment: as §12
[47] = compound: Cc1ncc(CCP(=O)(O)O)c(CO)c1O; experiment: as §12
[48] = compound: Cc1ncc(CCP(=O)(O)O)c(C=O)c1O; experiment: as §12
[49] = compound: Cc1ncc(/C=C/P(=O)(O)O)c(C=O)c1O; experiment: (§13) Inhibition of recombinant mouse brain PDXP-mediated pyridoxal 5' phosphate hydrolysis expressed in Escherichia coli BL21 (DE3) cells assessed as enzyme Km at 2 mM preincubated for 4 mins followed by substrate addition measured after 2 mins
[50] = compound: Cc1ncc(/C=C/P(=O)(O)O)c(CO)c1O; experiment: as §13
[51] = compound: Cc1ncc(CCP(=O)(O)O)c(CO)c1O; experiment: as §13
[52] = compound: Cc1ncc(CCP(=O)(O)O)c(C=O)c1O; experiment: as §13
[53] = compound: Cc1ncc(/C=C/P(=O)(O)O)c(C=O)c1O; experiment: (§14) Inhibition of recombinant mouse brain PDXP-mediated pyridoxal 5' phosphate hydrolysis expressed in Escherichia coli BL21 (DE3) cells assessed as enzyme Kcat at 2 mM preincubated for 4 mins followed by substrate addition measured after 2 mins
[54] = compound: Cc1ncc(/C=C/P(=O)(O)O)c(CO)c1O; experiment: as §14
[55] = compound: Cc1ncc(CCP(=O)(O)O)c(CO)c1O; experiment: as §14
[56] = compound: Cc1ncc(CCP(=O)(O)O)c(C=O)c1O; experiment: as §14
[57] = compound: Cc1ncc(/C=C/P(=O)(O)O)c(C=O)c1O; experiment: (§15) Inhibition of recombinant mouse brain PDXP-mediated pyridoxal 5' phosphate hydrolysis expressed in Escherichia coli BL21 (DE3) cells assessed as ratio of enzyme Kcat/Km at 0.5 mM preincubated for 4 mins followed by substrate addition measured after 2 mins
[58] = compound: Cc1ncc(/C=C/P(=O)(O)O)c(CO)c1O; experiment: as §15
[59] = compound: Cc1ncc(CCP(=O)(O)O)c(CO)c1O; experiment: as §15
[60] = compound: Cc1ncc(CCP(=O)(O)O)c(C=O)c1O; experiment: as §15
[61] = compound: Cc1ncc(/C=C/P(=O)(O)O)c(C=O)c1O; experiment: (§16) Inhibition of recombinant mouse brain PDXP-mediated pyridoxal 5' phosphate hydrolysis expressed in Escherichia coli BL21 (DE3) cells assessed as enzyme Km at 0.5 mM preincubated for 4 mins followed by substrate addition measured after 2 mins
[62] = compound: Cc1ncc(/C=C/P(=O)(O)O)c(CO)c1O; experiment: as §16
[63] = compound: Cc1ncc(CCP(=O)(O)O)c(CO)c1O; experiment: as §16
[64] = compound: Cc1ncc(CCP(=O)(O)O)c(C=O)c1O; experiment: as §16

B1: Chronophin (Mus musculus), P60487 (protein)
chain: MARCERLRGAALRDVLGQAQGVLFDCDGVLWNGERIVPGAPELLQRLARAGKNTLFVSNNSRRARPELALRFARLGFAGLRAEQLFSSALCAARLLRQRLSGPPDASGAVFVLGGEGLRAELRAAGLRLAGDPGEDPRVRAVLVGYDEQFSFSRLTEACAHLRDPDCLLVATDRDPWHPLSDGSRTPGTGSLAAAVETASGRQALVVGKPSPYMFQCITEDFSVDPARTLMVGDRLETDILFGHRCGMTTVLTLTGVSSLEEAQAYLTAGQRDLVPHYYVESIADLMEGLED
Km [1]: 248 µM
Km [2]: 112 µM
Km [3]: 98 µM
Km [4]: 197 µM
kcat/Km [5]: 0.4 ×10⁴ /s/M
kcat/Km [6]: 0.9 ×10⁴ /s/M
kcat/Km [7]: 1.2 ×10⁴ /s/M
kcat/Km [8]: 0.5 ×10⁴ /s/M
Vmax [9]: 1640 nmol/min/mg
Vmax [10]: 3070 nmol/min/mg
Vmax [11]: 3150 nmol/min/mg
Vmax [12]: 2130 nmol/min/mg
Vmax [13]: 3580 nmol/min/mg
Vmax [14]: 3300 nmol/min/mg
Vmax [15]: 3740 nmol/min/mg
Vmax [16]: 3590 nmol/min/mg
Km [17]: 78 µM
Km [18]: 44 µM
Km [19]: 59 µM
Km [20]: 72 µM
kcat [21]: 1.6 s⁻¹
kcat [22]: 1.7 s⁻¹
kcat [23]: 2 s⁻¹
kcat [24]: 1.7 s⁻¹
Vmax [25]: 2300 nmol/min/mg
Vmax [26]: 3150 nmol/min/mg
Vmax [27]: 3440 nmol/min/mg
Vmax [28]: 2620 nmol/min/mg
kcat [29]: 1.2 s⁻¹
kcat [30]: 1.7 s⁻¹
kcat [31]: 1.8 s⁻¹
kcat [32]: 1.4 s⁻¹
kcat/Km [33]: 0.5 ×10⁴ /s/M
kcat/Km [34]: 1.5 ×10⁴ /s/M
kcat/Km [35]: 1.9 ×10⁴ /s/M
kcat/Km [36]: 0.7 ×10⁴ /s/M
Vmax [37]: 2990 nmol/min/mg
Vmax [38]: 3230 nmol/min/mg
Vmax [39]: 3680 nmol/min/mg
Vmax [40]: 3280 nmol/min/mg
kcat/Km [41]: 2.4 ×10⁴ /s/M
kcat/Km [42]: 4 ×10⁴ /s/M
kcat/Km [43]: 3.3 ×10⁴ /s/M
kcat/Km [44]: 2.7 ×10⁴ /s/M
kcat [45]: 1.9 s⁻¹
kcat [46]: 1.8 s⁻¹
kcat [47]: 2 s⁻¹
kcat [48]: 1.9 s⁻¹
Km [49]: 224 µM
Km [50]: 181 µM
Km [51]: 136 µM
Km [52]: 246 µM
kcat [53]: 0.9 s⁻¹
kcat [54]: 1.6 s⁻¹
kcat [55]: 1.7 s⁻¹
kcat [56]: 1.1 s⁻¹
kcat/Km [57]: 0.9 ×10⁴ /s/M
kcat/Km [58]: 2.2 ×10⁴ /s/M
kcat/Km [59]: 2.4 ×10⁴ /s/M
kcat/Km [60]: 1 ×10⁴ /s/M
Km [61]: 170 µM
Km [62]: 77 µM
Km [63]: 83 µM
Km [64]: 170 µM
